# Reference: IntAct's records for PubMed 19122675
# B1: Calmodulin-binding transcription activator 3 (Arabidopsis thaliana (Mouse-ear cress)), Q8GSA7 (parent)
# chain: MAEARRFSPVHELDVGQILSEARHRWLRPPEICEILQNYQRFQISTEPPTTPSSGSVFMFDRKVLRYFRKDGHNWRKKKDGKTVKEAHERLKAGSVDVLHCYYAHGQDNENFQRRSYWLLQEELSHIVFVHYLEVKGSRVSTSFNRMQRTEDAARSPQETGDALTSEHDGYASCSFNQNDHSNHSQTTDSASVNGFHSPELEDAESAYNQHGSSTAYSHQELQQPATGGNLTGFDPYYQISLTPRDSYQKELRTIPVTDSSIMVDKSKTINSPGVTNGLKNRKSIDSQTWEEILGNCGSGVEALPLQPNSEHEVLDQILESSFTMQDFASLQESMVKSQNQELNSGLTSDRTVWFQGQDMELNAISNLASNEKAPYLSTMKQHLLHGALGEEGLKKMDSFNRWMSKELGDVGVIADANESFTQSSSRTYWEEVESEDGSNGHNSRRDMDGYVMSPSLSKEQLFSINDFSPSWAYVGCEVVVFVTGKFLKTREETEIGEWSCMFGQTEVPADVISNGILQCVAPMHEAGRVPFYVTCSNRLACSEVREFEYKVAESQVFDREADDESTIDILEARFVKLLCSKSENTSPVSGNDSDLSQLSEKISLLLFENDDQLDQMLMNEISQENMKNNLLQEFLKESLHSWLLQKIAEGGKGPSVLDEGGQGVLHFAASLGYNWALEPTIIAGVSVDFRDVNGWTALHWAAFFGRERIIGSLIALGAAPGTLTDPNPDFPSGSTPSDLAYANGHKGIAGYLSEYALRAHVSLLSLNDKNAETVEMAPSPSSSSLTDSLTAVRNATQAAARIHQVFRAQSFQKKQLKEFGDKKLGMSEERALSMLAPKTHKSGRAHSDDSVQAAAIRIQNKFRGYKGRKDYLITRQRIIKIQAHVRGYQFRKNYRKIIWSVGVLEKVILRWRRKGAGLRGFKSEALVEKMQDGTEKEEDDDFFKQGRKQTEDRLQKALARVKSMVQYPEARDQYRRLLNVVNDIQESKVEKALENSEATCFDDDDDLIDIEALLEDDDTLMLPMSSSLWTS
# Variants of: B1
# Conditions: with calm5_soltu PCM5, Q7DMN9
row,Variant,effect of a mutation on the interaction
1,K907E,disrupting interaction
